Experiments:
[1] = system: HA-L2g cells transduced with pBA9b-hIFNg-yCD2 vector; test: MTS cell viability of HA-L2g cells transduced with pBA9b-hIFNg-yCD2; type: cell-based, human
Procedure: The concentration PALA required to kill HA-L2g cells transduced with pBA9b-hIFNg-yCD2 vector is determined. Cells are seeded at 1e3 cells in 96-well plates the day before. At 24 hour post cell seeding, PALA at 1, 10, 50 and 100 μM are added to the culture for 4 consecutive days followed MTS assay to determine the cell viability. […] A range of cytosine concentrations are also determined (0.2, 1, 5 10 mM) in culture by performing the same experiment described above.

CTLL-2 = test: IL-2 bioactivity, CTLL-2 proliferation (3H-thymidine incorporation); type: cell-based, mouse; settings: produced by HA-L2 cells; vs recombinant IL-2 from E. coli
Procedure: CTLL-2 cell growth depends greatly on the presence of IL-2. The bioactivity of IL-2 is determined by the level of ^3H-thymidine incorporation into the DNA of proliferating cells. […] In addition, the level of CD expression from pBA9b-IFNg-yCD2 transduced HA-L2 cells is also detected by immunoblotting using an antibody against CD.

TGFβ1, 2 and 3 = TGFβ1, 2 and 3 gene expression (Taqman) in cancer cell lines before and after IFNγ treatment; type: cell-based, human; settings: panel of cancer cell lines including glioma
Text: A panel of cancer cell lines including glioma cell lines were surveyed for their TGFβ1, 2 and 3 expression before and after IFNγ treatment using human TGF isoform-specific Taqman primers (Life Technology). […] Some expression more TGFβ1 and others express more TGFβ2. In all cases, TGFβ3 expression is low. In contrast to IDO1 and PDL1, TGFβ1, 2 and 3 expression is not induced by IFNγ.

IDO1 = IDO1 protein expression in glioma cell lines after IFNγ induction; type: cell-based, human; settings: panel of glioma cell lines; level of induction varies
Text: A panel of glioma cell lines were surveyed for their IDO1 expression after IFNγ induction. […] GAPDH (anti-human GAPDH at 1:500, Cell Signaling) detection was included as a loading control.

PDL1 = test: PD-L1 cell surface expression in cancer cell lines before and after IFNγ induction; type: cell-based, human; settings: panel of cancer cell lines including glioma
Text: Its expression can be further induced by IFNγ. A panel of cancer cell lines including glioma cell lines is surveyed for their PDL1 expression (anti-human PD-L1 antibody, eBioscience) before and after IFNγ induction.

HT1080 = test: hIFNg-induced MHC Class I upregulation in HT1080 cells (flow cytometry); type: cell-based, human; settings: MFI
Procedure: (§1) To verify the bioactivity of recombinant hIFNg and mIFNg produced from the virus producer cell, upregulation of MHC Class I cell surface expression by flow cytometry was performed. Supernatant of known IFNg concentration were incubated with species-matched mouse colon carcinoma cell line, CT-26 or human fibrosarcoma cell line, HT1080. The degree of upregulation measured by mean fluorescent intensity (MFI) was compared to a standard which are purified recombinant protein expressed from E. coli. […] The recombinant hIFNg produced from the virus producer cells are 3-5 fold higher than that produced from E. coli (FIG. 2B). The difference is likely due to the differences in amino acid composition as well as glycosylation pattern.

CT-26 = test: mIFNg-induced MHC Class I upregulation in CT-26 cells (flow cytometry); type: cell-based, mouse; settings: vs purified recombinant protein from E. coli
Procedure: as §1

O=C(O)C[C@H](NC(=O)CP(=O)(O)O)C(=O)O [PALA, N-(phosphonacetyl)-L-aspartate]
cell viability with PALA ([1]; 1, 10, 50 and 100 μM, 4 consecutive days): sensitive to PALA at 10 μM and plateau at 50 μM

Nc1cc[nH]c(=O)n1 [cytosine]
cell viability with cytosine ([1]; 0.2, 1, 5, 10 mM): can tolerate cytosine in all concentrations tested

B1: mIL-2: recombinant mouse IL-2 produced by the HA-L2 cells (protein, UniProt P04351 21-169, looked up)
Interleukin-2: APTSSSTSSSTAEAQQQQQQQQQQQQHLEQLLMDLQELLSRMENYRNLKLPRMLTFKFYLPKQATELKDLQCLEDELGPLRHVLDLTQSKSFQLEDAENFISNIRVTVVKLKGSDNTFECQFDDESATVVDFLRRWIAFCQSIISTSPQ
IL-2 bioactivity (CTLL-2): comparable

B2: IFNγ: interferon gamma used to induce IDO1 and PDL1 expression in cell lines (protein, UniProt P01579 24-161, looked up)
Interferon gamma: QDPYVKEAENLKKYFNAGHSDVADNGTLFLGILKNWKEESDRKIMQSQIVSFYFKLFKNFKDDQSIQKSVETIKEDMNVKFFNSNKKKRDDFEKLTNYSVTDLNVQRKAIHELIQVMAELSPAAKTGKRKRSQMLFRG
TGFβ1, 2 and 3 expression induced by IFNγ (TGFβ1, 2 and 3): not induced | IDO1 expression after IFNγ induction (IDO1): upregulated | PDL1 expression further induced by IFNγ (PDL1): most of the cells lines, but not all, tested here are responsive

B3: recombinant hIFNg produced from the virus producer cells: human IFNg in supernatant of virus producer cells (protein, UniProt P01579 24-161, looked up)
Interferon gamma: B2 Interferon gamma
bioactivity higher than that produced from E. coli (HT1080): 3-5 fold

B4: recombinant mIFNg produced by the virus producer cells: mouse IFNg in supernatant of virus producer cells (protein, UniProt P01580 23-155, looked up)
Interferon gamma: HGTVIESLESLNNYFNSSGIDVEEKSLFLDIWRNWQKDGDMKILQSQIISFYLRLFEVLKDNQAISNNISVIESHLITTFFSNSKAKKDAFMSIAKFEVNNPQVQRQAFNELIRVVHQLLPESSLRKRKRSRC
bioactivity (MHC Class I upregulation, MFI) (CT-26): comparable to that of recombinant mIFNg produced by E. coli

— patent US11230719B2, “Retroviral vector having immune-stimulating activity” (DENOVO BIOPHARMA LLC, priority 2014, dated 2022)
